According to the supplement of paper PMC11136658:

Tested on: peptide library, one residue held at a place counted from the Y acceptor
Assay: relative phosphorylation of the sub-library (ratio to the mean residue at this position); higher = residue favoured
Outline: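 Biotinylated Tyr-centred peptide library mixtures, each fixing one residue at one position from −5 to +5, were incubated with purified recombinant kinases in 384-well plates for 90 min with 50 μM ATP plus γ-32P-ATP. Streptavidin membranes captured the peptides, which were rinsed and quantified by phosphorimaging and ImageQuant. At each position, intensities were divided by the sum of the 18 randomized residues (16 for the Ser/Thr-free library) and multiplied by that number. Each value is phosphorylation relative to the mean randomized residue.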

Sequence of DDR2, construct: aa522-end, human (Q16832 522-855, looked up): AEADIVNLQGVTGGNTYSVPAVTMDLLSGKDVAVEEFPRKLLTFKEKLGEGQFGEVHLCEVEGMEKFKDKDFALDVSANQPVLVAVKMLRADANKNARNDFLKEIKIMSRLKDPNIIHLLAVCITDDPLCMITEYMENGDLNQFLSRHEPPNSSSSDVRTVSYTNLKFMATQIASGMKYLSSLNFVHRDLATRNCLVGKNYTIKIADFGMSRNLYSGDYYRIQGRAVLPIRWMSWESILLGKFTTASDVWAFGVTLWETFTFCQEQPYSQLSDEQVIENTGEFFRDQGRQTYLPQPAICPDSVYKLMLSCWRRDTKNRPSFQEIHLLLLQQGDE

DDR2, construct: aa522-end, human (from UniProt Q16832)
relative phosphorylation
Details | at +1 | at +2 | at +3 | at +4 | at +5 | at -1 | at -2 | at -3 | at -4 | at -5
A fixed | 2.33 | 0.781 | 0.51 | 0.457 | 0.507 | 1.2 | 0.969 | 0.938 | 0.924 | 1.1
D fixed | 0.221 | 0.71 | 0.309 | 1.13 | 0.445 | 1.83 | 0.707 | 0.692 | 0.688 | 0.848
E fixed | 0.206 | 1.66 | 0.283 | 1.36 | 0.393 | 0.583 | 0.635 | 0.567 | 0.724 | 0.771
F fixed | 0.905 | 0.738 | 1.38 | 2.06 | 2.29 | 0.517 | 0.358 | 1.13 | 0.728 | 0.723
G fixed | 0.361 | 0.37 | 0.296 | 0.372 | 0.632 | 0.617 | 1.19 | 1.09 | 1.43 | 1.38
H fixed | 0.894 | 0.92 | 0.901 | 1.63 | 0.817 | 1.14 | 1.58 | 1.82 | 1.29 | 1.17
I fixed | 1.13 | 1.08 | 3.3 | 1.09 | 2.43 | 0.879 | 0.316 | 0.472 | 0.627 | 0.548
K fixed | 0.899 | 0.687 | 0.35 | 0.56 | 0.607 | 0.653 | 1.85 | 1.44 | 1.6 | 1.42
L fixed | 0.602 | 1.42 | 1.94 | 0.851 | 1.4 | 0.828 | 0.449 | 0.466 | 0.581 | 0.702
M fixed | 1.12 | 1.3 | 2.09 | 0.824 | 1.08 | 0.593 | 0.597 | 0.534 | 0.933 | 0.787
N fixed | 0.502 | 1.03 | 0.365 | 1.05 | 0.747 | 2.72 | 1.66 | 1.3 | 0.985 | 1.01
P fixed | 0.745 | 0.655 | 0.306 | 0.383 | 0.962 | 1.57 | 1.55 | 1.15 | 1.52 | 1.45
Q fixed | 0.823 | 0.933 | 0.505 | 1.02 | 0.56 | 0.829 | 1.1 | 0.917 | 1.01 | 0.996
R fixed | 1.38 | 0.825 | 0.49 | 0.88 | 0.861 | 0.656 | 2.03 | 1.96 | 1.89 | 1.67
S fixed | 1.04 | 1.14 | 0.464 | 0.701 | 0.586 | 0.989 | 1.21 | 0.968 | 0.876 | 1.02
T fixed | 1.54 | 1.18 | 0.991 | 0.855 | 0.688 | 1.11 | 1.03 | 0.906 | 0.858 | 0.905
V fixed | 2.79 | 1.32 | 1.95 | 1.02 | 1.76 | 0.839 | 0.372 | 0.553 | 0.651 | 0.73
W fixed | 0.511 | 1.24 | 1.58 | 1.76 | 1.24 | 0.438 | 0.383 | 1.1 | 0.679 | 0.754
pThr fixed | 0.698 | 1.61 | 0.5 | 1.87 | 0.616 | 0.706 | 0.487 | 0.467 | 0.612 | 0.696
pTyr fixed | 0.68 | 2.07 | 0.439 | 2.16 | 0.38 | 0.474 | 0.473 | 0.614 | 0.613 | 0.75

EGFR, construct: aa668-end, human (from UniProt P00533)
relative phosphorylation
Details | at +1 | at +2 | at +3 | at +4 | at +5 | at -1 | at -2 | at -3 | at -4 | at -5
A fixed | 0.795 | 0.684 | 0.702 | 0.943 | 1.08 | 0.639 | 1.08 | 0.898 | 1.14 | 0.991
D fixed | 0.496 | 1.29 | 1.17 | 1.09 | 1.12 | 2.93 | 1.74 | 2.12 | 1.58 | 1.34
E fixed | 0.948 | 1.95 | 1.08 | 1.42 | 1.06 | 2.35 | 1.92 | 2.39 | 1.59 | 1.2
F fixed | 2.04 | 1.23 | 1.06 | 0.967 | 1.06 | 0.716 | 0.637 | 0.848 | 1.01 | 0.989
G fixed | 0.246 | 0.422 | 0.884 | 1.19 | 1.11 | 0.487 | 1.09 | 1.03 | 1.1 | 1.24
H fixed | 1.4 | 0.836 | 0.882 | 1.08 | 0.904 | 0.988 | 0.813 | 0.949 | 0.77 | 0.989
I fixed | 1.85 | 1.12 | 1.72 | 0.823 | 0.785 | 1.77 | 0.862 | 0.601 | 0.801 | 0.955
K fixed | 0.26 | 0.498 | 0.34 | 0.895 | 0.935 | 0.315 | 0.605 | 0.561 | 0.789 | 0.794
L fixed | 0.988 | 0.964 | 1.51 | 0.756 | 0.918 | 1.07 | 0.831 | 0.748 | 0.992 | 1
M fixed | 0.826 | 1.03 | 1.02 | 1.11 | 0.902 | 0.757 | 0.821 | 0.776 | 0.855 | 0.96
N fixed | 0.383 | 1.01 | 0.61 | 0.783 | 0.881 | 1.09 | 1.06 | 1.2 | 0.917 | 1.1
P fixed | 0.313 | 0.623 | 0.824 | 1.1 | 1.66 | 0.721 | 1.11 | 0.934 | 1.1 | 1.07
Q fixed | 0.804 | 0.905 | 0.941 | 0.969 | 0.827 | 0.768 | 1.13 | 0.881 | 1.08 | 0.954
R fixed | 0.299 | 0.685 | 0.665 | 0.978 | 0.825 | 0.317 | 0.575 | 0.586 | 0.763 | 0.87
S fixed | 0.762 | 0.843 | 0.79 | 0.931 | 1.14 | 0.546 | 1.13 | 0.995 | 0.827 | 0.88
T fixed | 1.09 | 0.907 | 0.956 | 0.964 | 0.913 | 0.784 | 0.923 | 0.935 | 0.672 | 0.802
V fixed | 2.64 | 1.05 | 1.47 | 0.88 | 0.899 | 1.16 | 0.979 | 0.7 | 0.825 | 0.851
W fixed | 1.85 | 1.96 | 1.37 | 1.12 | 0.981 | 0.598 | 0.708 | 0.843 | 1.19 | 1
pThr fixed | 1.41 | 1.5 | 0.796 | 1.02 | 1.08 | 2.05 | 1.57 | 1.61 | 1.41 | 1.2
pTyr fixed | 11.9 | 5.31 | 0.921 | 1.45 | 1.01 | 5.3 | 2.06 | 2.19 | 2.18 | 1.69
